Measured values reported in patent US9650414B1, “Dual-action EP4 agonist—bisphosphonate conjugates and uses thereof” (Simon Fraser University, priority 2014, dated 2017).

How the values were obtained:
[1] = Rat organ distribution, uptake and release of conjugate 17a in rat bone; assay type: in vivo
Protocol: (§1) Female Sprague Dawley rats (Charles River) were about 13 weeks old when received. They were acclimatized to the facility and operators, and were randomly divided to five groups: 6 hour, 1-, 7, 14 and -28 day. Dose: [^3H]-17a: 8.90 μCi/rat, [^14C]-17a 1.77 uCi/rat, and 17a 5.0 mg/kg. Formulation: conjugate 17a was suspended in Poloxamer 188 solution 10%, and adjusted to pH 8.0 by NaHCO3, then diluted by equal volume of PBS. The dosing was done with a fixed volume of 500 μL. The bolus injection and blood sampling were done via the tail vein. […] Long bones were harvested and counted.
After 6 h, 1, 7, 14, 28 days three animals were weighed, sacrificed by CO2 and blood, fat, muscle, brain, heart, kidney, spleen, liver and bone were dissected and cleaned free of any loose tissue. The amount of radioactivity was determined by incineration in a R. J. Harvey OX300 Biological Oxidizer. The percent of the compound retained in the skeleton and the other organs at each time point was calculated by measuring activity per gram (μCi/g) in the collected samples and extrapolating to total activity retained in the skeleton and the other organs, the weight of skeleton was calculated by 8% of the body weight, the weight of the other organs was measured by balance. […] Table 3 and FIGS. 7A-E show rat organ distribution, uptake and release of a representative conjugate compound 17a.

[2] = Analysis of the blood samples, level of tritiated 17a in blood; assay type: in vivo; conditions: rat, tail vein bolus, [3H]-17a
Protocol: as §1
Three Female Sprague Dawley rats (Charles River) were about 23 weeks old when received. They were acclimatized to the facility and operators. Dose: [^3H]-17a: 31.0 μCi/rat. Blood samples (0.5 mL per time point per rat) were taken from the 6-hour group of rats 0.5, 1, 2, 4, 6 hour and placed in heparinized micro-centrifuge tubes. Blood samples from the (500 μL) were centrifuged at ˜5000×G until plasma had separated. 100 μL of the supernatant was analyzed in a Harvey OX-300 biological oxidizer using the four-minute program. The collected scintillation mixture was counted on a Beckman Coulter LS-6500 scintillation counter. The counting time was two minute.

human Cathepsin K = target: T1, human Cathepsin K (Homo sapiens, UniProt P43235); experiment: Cathepsin K assay, hydrolysis of conjugates by human Cathepsin K; assay type: biochemical; conditions: conjugate 100 uM, CatK 0.2 uM, pH 5.5, 37 C
T1 construct: purchased Sigma-Aldrich; host or cells: E. coli
T1 sequence (P43235 115-329): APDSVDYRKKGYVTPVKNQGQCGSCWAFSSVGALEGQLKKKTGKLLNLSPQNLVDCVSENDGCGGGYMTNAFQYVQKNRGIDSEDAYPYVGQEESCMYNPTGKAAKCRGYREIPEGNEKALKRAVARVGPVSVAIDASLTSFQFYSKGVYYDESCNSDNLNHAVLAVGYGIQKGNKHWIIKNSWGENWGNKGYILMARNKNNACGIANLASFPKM
Protocol: (§2) Cathepsin K rat (recombinant, expressed in E. coli) was obtained from Merck as a gift. […] Enzyme activity was assayed using the Cathepsin K standard substrate Z-Leu-Arg-AMC. […] The appearances of released self-immolative linker 4-aminobenyl alcohol were recorded.

rat Cathepsin K = target: T2, rat Cathepsin K (Rattus norvegicus, UniProt O35186); experiment: Cathepsin K assay, hydrolysis of conjugates by rat Cathepsin K; assay type: biochemical; conditions: conjugate 100 uM, CatK 0.2 uM, pH 5.5, 37 C
T2 construct: Merck (gift); host or cells: E. coli
T2 sequence (O35186 115-329): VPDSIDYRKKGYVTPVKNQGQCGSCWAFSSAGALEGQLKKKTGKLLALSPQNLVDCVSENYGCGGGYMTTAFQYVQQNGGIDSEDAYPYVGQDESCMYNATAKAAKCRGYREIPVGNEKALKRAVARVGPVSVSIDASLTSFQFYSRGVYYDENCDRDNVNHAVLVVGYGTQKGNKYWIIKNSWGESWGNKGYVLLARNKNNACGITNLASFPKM
Protocol: as §2

CCOC(=O)CCCCCCN1C(=O)CC[C@@H]1/C=C/[C@@H](OC(=O)Cc1ccc(COC(=O)N[C@@H](CC(C)C)C(=O)N[C@@H](CCCNC(=N)N)C(=O)Nc2ccc(COC(=O)NCCCC(O)(P(=O)(O)O)P(=O)(O)O)cc2)cc1)C(F)(F)c1ccccc1 [Compound 17a, (4-((((4-((S)-2-((S)-2-((((4-(2-(((R,E)-4-((R)-1-(7-ethoxy-7-oxoheptyl)-5-oxopyrrolidin-2-yl)-1,1-difluoro-1-phenylbut-3-en-2-yl)oxy)-2-oxoethyl)benzyl)oxy)carbonyl)amino)-4-methylpentanamido)-5-guanidinopentanamido)benzyl)oxy)carbonyl)amino)-1-hydroxybutane-1,1-diyl)bis(phosphonic acid)]
behavior or reaction of dosed animals ([1]; 17a 5.0 mg/kg, tail vein bolus): no unusual behavior or reaction to the drug treatment | distribution of radio-activity ([1]; at 6 hours): most radio-activity was observed in liver and bones | uptake ([1]; by 3H): 2% | uptake ([1]; by 14C): ~5% | distribution of radio-activity ([1]; by 7 days): only bones had a significant amount of radio-activity | Percentage of dose in Bone ([1]; tail vein bolus, 3H, 1-day): 2.12% | Percentage of dose in Brain ([1]; tail vein bolus, 3H, 1-day): 0.025% | Percentage of dose in Heart ([1]; tail vein bolus, 3H, 1-day): 0.021% | Percentage of dose in Kidney ([1]; tail vein bolus, 3H, 1-day): 0.11% | Percentage of dose in Liver ([1]; tail vein bolus, 3H, 1-day): 2.33% | Percentage of dose in Spleen ([1]; tail vein bolus, 3H, 1-day): 0.22% | Percentage of dose in Bone ([1]; tail vein bolus, 3H, 6-hour): 2.10% | Percentage of dose in Brain ([1]; tail vein bolus, 3H, 6-hour): 0.022% | Percentage of dose in Heart ([1]; tail vein bolus, 3H, 6-hour): 0.025% | Percentage of dose in Kidney ([1]; tail vein bolus, 3H, 6-hour): 0.21% | Percentage of dose in Liver ([1]; tail vein bolus, 3H, 6-hour): 8.95% | Percentage of dose in Spleen ([1]; tail vein bolus, 3H, 6-hour): 0.35% | Percentage of dose in Bone ([1]; tail vein bolus, 3H, 7-day): 1.30% | Percentage of dose in Brain ([1]; tail vein bolus, 3H, 7-day): LOD | Percentage of dose in Heart ([1]; tail vein bolus, 3H, 7-day): 0.014% | Percentage of dose in Kidney ([1]; tail vein bolus, 3H, 7-day): 0.053% | Percentage of dose in Liver ([1]; tail vein bolus, 3H, 7-day): 0.48% | Percentage of dose in Spleen ([1]; tail vein bolus, 3H, 7-day): 0.076% | Percentage of dose in Bone ([1]; tail vein bolus, 3H, 14-day): 0.80% | Percentage of dose in Brain ([1]; tail vein bolus, 3H, 14-day): LOD | Percentage of dose in Heart ([1]; tail vein bolus, 3H, 14-day): LOD | Percentage of dose in Kidney ([1]; tail vein bolus, 3H, 14-day): 0.026% | Percentage of dose in Liver ([1]; tail vein bolus, 3H, 14-day): 0.30% | Percentage of dose in Spleen ([1]; tail vein bolus, 3H, 14-day): 0.039% | Percentage of dose in Bone ([1]; tail vein bolus, 3H, 28-day): 0.74% | Percentage of dose in Brain ([1]; tail vein bolus, 3H, 28-day): LOD | Percentage of dose in Heart ([1]; tail vein bolus, 3H, 28-day): LOD | Percentage of dose in Kidney ([1]; tail vein bolus, 3H, 28-day): 0.017% | Percentage of dose in Liver ([1]; tail vein bolus, 3H, 28-day): 0.08% | Percentage of dose in Spleen ([1]; tail vein bolus, 3H, 28-day): 0.037% | Percentage of dose in Bone ([1]; tail vein bolus, 14C, 1-day): 4.63% | Percentage of dose in Brain ([1]; tail vein bolus, 14C, 1-day): 0.012% | Percentage of dose in Heart ([1]; tail vein bolus, 14C, 1-day): 0.009% | Percentage of dose in Kidney ([1]; tail vein bolus, 14C, 1-day): 0.047% | Percentage of dose in Liver ([1]; tail vein bolus, 14C, 1-day): 2.50% | Percentage of dose in Spleen ([1]; tail vein bolus, 14C, 1-day): 0.23% | Percentage of dose in Bone ([1]; tail vein bolus, 14C, 6-hour): 5.52% | Percentage of dose in Brain ([1]; tail vein bolus, 14C, 6-hour): 0.014% | Percentage of dose in Heart ([1]; tail vein bolus, 14C, 6-hour): 0.017% | Percentage of dose in Kidney ([1]; tail vein bolus, 14C, 6-hour): 0.11% | Percentage of dose in Liver ([1]; tail vein bolus, 14C, 6-hour): 7.03% | Percentage of dose in Spleen ([1]; tail vein bolus, 14C, 6-hour): 0.34% | Percentage of dose in Bone ([1]; tail vein bolus, 14C, 7-day): 3.51% | Percentage of dose in Brain ([1]; tail vein bolus, 14C, 7-day): LOD | Percentage of dose in Heart ([1]; tail vein bolus, 14C, 7-day): LOD | Percentage of dose in Kidney ([1]; tail vein bolus, 14C, 7-day): 0.020% | Percentage of dose in Liver ([1]; tail vein bolus, 14C, 7-day): 0.61% | Percentage of dose in Spleen ([1]; tail vein bolus, 14C, 7-day): 0.086% | Percentage of dose in Bone ([1]; tail vein bolus, 14C, 14-day): 2.52% | Percentage of dose in Brain ([1]; tail vein bolus, 14C, 14-day): LOD | Percentage of dose in Heart ([1]; tail vein bolus, 14C, 14-day): LOD | Percentage of dose in Kidney ([1]; tail vein bolus, 14C, 14-day): 0.013% | Percentage of dose in Liver ([1]; tail vein bolus, 14C, 14-day): 0.27% | Percentage of dose in Spleen ([1]; tail vein bolus, 14C, 14-day): 0.050% | Percentage of dose in Bone ([1]; tail vein bolus, 14C, 28-day): 2.44% | Percentage of dose in Brain ([1]; tail vein bolus, 14C, 28-day): LOD | Percentage of dose in Heart ([1]; tail vein bolus, 14C, 28-day): LOD | Percentage of dose in Kidney ([1]; tail vein bolus, 14C, 28-day): 0.0092% | Percentage of dose in Liver ([1]; tail vein bolus, 14C, 28-day): 0.10% | Percentage of dose in Spleen ([1]; tail vein bolus, 14C, 28-day): 0.039% | clearance from circulating blood, t1/2 [2]: ~30 min

N=C(N)NCCC[C@H](NC(=O)[C@@H]1CCCN1C(=O)OCc1ccccc1)C(=O)Nc1ccc(COC(=O)NCCCC(O)(P(=O)(O)O)P(=O)(O)O)cc1 [Compound 6, (4-((((4-((S)-2-((S)-1-((benzyloxy)carbonyl)pyrrolidine-2-carboxamido)-5-guanidinopentanamido)benzyl)oxy)carbonyl)amino)-1-hydroxybutane-1,1-diyl)bis(phosphonic acid)]
hydrolysis by Hum CatK (human Cathepsin K; 1 hour): 90% | hydrolysis by Hum CatK (human Cathepsin K; 2 hour): 98% | hydrolysis by Rat CatK (rat Cathepsin K; 1 hour): 5% | hydrolysis by Rat CatK (rat Cathepsin K; 2 hour): 10% | hydrolysis by Rat CatK (rat Cathepsin K; 20 hour): 52%

CC(C)C[C@H](NC(=O)OCc1ccccc1)C(=O)N[C@@H](CCCNC(=N)N)C(=O)Nc1ccc(COC(=O)NCCCC(O)(P(=O)(O)O)P(=O)(O)O)cc1 [Compound 7]
hydrolysis by Hum CatK (human Cathepsin K; 1 hour): 66% | hydrolysis by Hum CatK (human Cathepsin K; 2 hour): 75% | hydrolysis by Hum CatK (human Cathepsin K; 3 hour): 79 (3 hour) % | hydrolysis by Rat CatK (rat Cathepsin K; 1 hour): 73% | hydrolysis by Rat CatK (rat Cathepsin K; 2 hour): 80% | hydrolysis by Rat CatK (rat Cathepsin K; 20 hour): 95%

N=C(N)NCCC[C@H](NC(=O)[C@@H]1CCCN1C(=O)CNC(=O)OCc1ccccc1)C(=O)Nc1ccc(COC(=O)NCCCC(O)(P(=O)(O)O)P(=O)(O)O)cc1 [Compound 8, (4-((((4-((S)-2-((S)-1-(((benzyloxy)carbonyl)glycyl)pyrrolidine-2-carboxamido)-5-guanidinopentanamido)benzyl)oxy)carbonyl)amino)-1-hydroxybutane-1,1-diyl)bis(phosphonic acid)]
hydrolysis by Hum CatK (human Cathepsin K; 1 hour): 91% | hydrolysis by Hum CatK (human Cathepsin K; 2 hour): 100% | hydrolysis by Rat CatK (rat Cathepsin K; 1 hour): 11% | hydrolysis by Rat CatK (rat Cathepsin K; 2 hour): 20% | hydrolysis by Rat CatK (rat Cathepsin K; 20 hour): 80%
